B1: antibody D48 human-guinea pig chimeric IgG2κ (antibody, V domains shown)
VH: EVQLVETGGGVVRPGRSLRLSCTTSGFSFSGSAMHWVRQAPGKGLEWVAVISHDGNIIQYHDSVKGRFTISRDNSKNVLLLQMNSLRVDDTAMYYCARDVWLLPATISYAFDFWGQGTMVTVSS
VL: VIWMTQSPPSLSASIGDTVTITCRASQGISNSIAWYQRRPGKAPELLVYAAYRLQSGVPSRLSGSGSGAEYTLTIKNMQPEDFATYYCQQYYDNPLTFGGGTKVEIK
B2: antibody D48 Fab (Fab, V domains shown, not shown: small tags and cut ends; a dimerising Fc or GST)
VH: B1 VH
VL: B1 VL
B3: antibody D48 human-murine chimeric IgG2a (antibody, V domains shown, not shown: a dimerising Fc or GST)
VH: B1 VH
VL: B1 VL
B4: antibody D48 scFv-hFc (Fc fusion, not shown: a dimerising Fc or GST)
scFv: EVQLVETGGGVVRPGRSLRLSCTTSGFSFSGSAMHWVRQAPGKGLEWVAVISHDGNIIQYHDSVKGRFTISRDNSKNVLLLQMNSLRVDDTAMYYCARDVWLLPATISYAFDFWGQGTMVTVSSASTGGGGSGGGGSGGGGSVIWMTQSPPSLSASIGDTVTITCRASQGISNSIAWYQRRPGKAPELLVYAAYRLQSGVPSRLSGSGSGAEYTLTIKNMQPEDFATYYCQQYYDNPLTFGGGTKVEIK

Key:
[1] = biological target: recombinant gB (gB1-705-strep), ectodomain of wild type gB of HSV-2 strain 333 (HSV-2 strain 333, UniProt P06763 23-727)
[2] = biological target: envelope glycoprotein B (gB) of HSV-1 strain KOS (HSV-1 strain KOS, UniProt P06437 31-904); assay: cell-based or functional assay
[3] = biological target: envelope glycoprotein B (gB) of HSV-2 strain MS (HSV-2 strain MS); assay: cell-based or functional assay

Binder | Kd [1] [nM] | 50% plaque number-reducing activity [2] [nM] | 50% plaque number-reducing activity [3] [nM]
B1 | 0.76 | 0.94 | 7.5
B2 | – | 2.7 | 4.4
B3 | – | 1.9 | 1.6
B4 | – | 1 | 0.12
